Experimental data published in US20020077289A1, “Angiostatin and endostatin binding proteins and methods of use” (priority 2000, published 2002).
Entries after “also recorded” stand apart in the source; their conditions may differ. Blank lines part the entries; values can stand above or below the molecule they belong to. Bridges are numbered along the chain shown (N, C = ends). Where no end group is shown, it is not given here.

How the values were obtained:
[1] = target: T1, rhTM3 (human tropomyosin isoform 3) (Homo sapiens, UniProt P09493); assay: Surface plasmon resonance (BIAcore) binding to immobilized rhTM3
T1 construct: made in house; host or cells: E. coli BL21 (DE3), pET-21a(+)
Method: (A), 0, 10, 20, 40, 80 and 160 micromolar (μM) of rhEndostatin were injected at 5 microliters per minute (μl/minute) for 960 seconds through a biosensor flow cell that had been activated and blocked as a control for bulk refractive index and subsequently through a flow cell to which 3200 response units (RU) of rhTM3 had been immobilized. The binding kinetics were recorded and the differences between the two curves plotted for each rhEndostatin concentration. (B), 0, 11.5, 23 and 46 micromolar (μM) of rhAngiostatin were injected at 5 microliters per minute (μl/minute) for 900 seconds over a flow cell containing 3200 RU of rhTM3 as above. Samples were run in duplicate, the data corrected for bulk shift and the average of the 2 curves plotted. (C), Injection of 5 micromolar (μM) of rhEndostatin at 5 microliters per minute (μl/minute) for 240 seconds in the presence of 0, 6, 15, 30 and 45 micromolar (μM) of soluble rhTM3 over a flow cell containing 2000 RU of rhTM3. Samples were run in duplicate, the reference cell values subtracted and the average of each of the 2 curves plotted. The spikes in RU seen at the beginning and end of each injection are due to lag in flow caused by the rhTM3 and reference cells being non-adjacent.
Interactions between purified soluble rhEndostatin and rhTM3 were evaluated by surface plasmon resonance using the BIAcore 3000 (BiaCore, Piscataway, N.J.). The purified rhTM3 was immobilized on the flow cell of a CM-5 BIAcore biosensor chip. The running buffer was 0.01 M HEPES, pH 7.4, 0.15M NaCl and 0.005% polysorbate 20 (v/v). The competition experiments involving soluble rhTM3 were performed using PBS pH 7.4 as running buffer. All measurements were performed at 25° C. To correct for differences in bulk refraction all protein preparations were passed over an activated and blocked flow cell to which no protein had been coupled. Effects due to bulk shift were subtracted from experimental data.
Surface plasmon resonance performed using the BIAcore 3000 (BiaCore, Piscataway, N.J.) was used to assess the kinetics of rhEndostatin/rhTM3 binding. […]

[2] = target: T2, rhEndostatin (Homo sapiens, UniProt P39060); assay: ELISA of tropomyosin binding to rhEndostatin coated wells; settings: wells coated with 5 μg/ml rhEndostatin or BSA, detection with TM311 anti-tropomyosin
T2 construct: rhEndostatin were produced in P. pastoris and purified to homogeneity; made in house; host or cells: Pichia pastoris
T2 sequence (P39060 1572-1754 limits assumed): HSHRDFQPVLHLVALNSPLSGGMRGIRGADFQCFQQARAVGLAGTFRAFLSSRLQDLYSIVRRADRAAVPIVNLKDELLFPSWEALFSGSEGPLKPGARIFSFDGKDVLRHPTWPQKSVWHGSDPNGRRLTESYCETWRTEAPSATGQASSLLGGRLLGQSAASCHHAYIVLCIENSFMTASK
Method: FIG. 13 provides a graph showing that rhTM3 binds rhEndostatin in vitro. The wells of a 96-well plate were coated with either 5 micrograms/milliliter (μg/ml) of rhEndostatin (closed symbols) or BSA (open symbols) and incubated with increasing amounts of control E. coli lysate (circles) or tropomyosin expressing λ21-1 bacterial lysate (squares). The amount of tropomyosin binding to each well was determined spectrophotometrically following the addition of the TM311 anti-tropomyosin ascites fluid, alkaline phosphatase conjugated anti-mouse IgG and substrate. Error bars indicate standard deviation of the mean.
Plates were coated with 5 μg/ml of BSA or rhEndostatin and blocked. Dilutions of λ21-1 or control lysate were added and incubated for 1 hour at 37° C., followed by incubation with 1:500 diluted anti-tropomyosin TM311 ascites fluid (Sigma, St. Louis, Miss.). Following incubation in 1:5000 diluted anti-mouse IgG (H+L) conjugated to alkaline phosphatase (Promega, Madison, Wis.) wells were developed using Blue Phos Phosphatase Substrate (Kirkegaard and Perry, Gaithersburg, Md.) and the OD635 measured.
In this experiment the wells of a 96 well plate were either coated with 5 μg/ml of Endostatin protein or BSA protein. […] The wells were washed and incubated with anti-tropomyosin antibodies followed by anti-mouse IgG AP conjugated antibodies and developed using KPL Blue Phos microwell phosphatase solution. The OD635 was measured after a one hour incubation at room temperature and the results plotted in FIG. 8.
Recombinant human Endostatin protein and hTM3 were also shown to interact in a capture ELISA (FIG. 8).

[3] = system: B16-BL6 melanoma cells; assay: B16-BL6 experimental metastasis assay; format: in vivo, C57BL/6J mice; settings: co-injection of 1.5 nmol rhEndostatin and up to 375 nmol control peptide; p>0.11
Method: C57BL/6J mice were injected via the tail vein with 5×10^4 B16-BL6 melanoma cells on day 0. On day 3, groups of five mice received daily subcutaneous doses of either buffer control, 1.5 nmol (1.5 mg/kg/day) of rhEndostatin in combination with 0, 15, 75 or 375 nmol of control or E37 peptide, or control or E37 peptide alone for eleven days. All mice were sacrificed on day 14, and the number of pulmonary surface metastases in each animal counted. Error bars indicate standard deviation of the mean.
C57BL/6J mice (n=8) were injected intravenously (i.v.) with 5×10^4 B16-BL6 cells/mouse. Three days later treatment commenced. 100 μl of citrate-phosphate buffer (66 mM Sodium Phosphate, 17 mM Citric acid, 59 mM NaCl pH 6.2) containing 1.5 nmol of rhEndostatin and 100 μl of PBS containing either 0, 15, 75 or 375 nmol of control or E37 peptide were mixed and injected subcutaneously (s.c.) daily for 11 days. All mice were then sacrificed, their lungs removed and the number of surface metastases counted. Results were analyzed for statistical significance using the 2-tailed Student's t-test.
The following experiment was conducted to determine the interaction of E37 peptide and Endostatin protein. Briefly, the B16BL6 experimental metastasis assay, as known to those of skill in the art and further described in International Patent Application number PCT/US99/11418, was performed as follows. 5×10^4 B16-BL6 cells in 200 μl of PBS were injected into C57BL/6J mice via the tail vein. Three days post injection treatment was started. The injection received by eight groups of mice were: 1) citrate phosphate/PBS buffer, 2) ^30 μg Endostatin protein (in 100 μl PBS), 3) 30 μg Endostatin protein (in 200 μl PBS), 4) 30 μg Endostatin protein plus 50 times molar excess of control peptide (in 200 μl PBS), 5) 30 μg Endostatin protein plus 250 times molar excess of control peptide (in 200 μl PBS), 6) 30 μg Endostatin protein plus 10 times molar excess of E37 peptide (in 200 μl PBS), 7) 30 μg Endostatin protein plus 50 times molar excess of E37 peptide (in 200 μl PBS), and 8) 30 μg Endostatin protein plus 250 times molar excess of E37 peptide (in 200 μl PBS). Doses were administered daily for eleven days posterior to the thoracic cavity subcutaneously. All mice were sacrificed, the lungs removed and the number of surface metastases in each animal were counted under a stereo microscope.

[4] = system: HUVEC microfilaments; assay: Fluorescent staining of formalin fixed endothelial cells with Alexa 488-labeled rhEndostatin; format: cell-based, human; settings: 50-fold molar excess (100 μM) of peptide; 40 μg/ml (2 μM) Alexa-rhEndostatin
Method: (A), HUVECs, (B), HAECs and (C), HMVECs were incubated in the presence of 40 micrograms per milliliter (μg/ml) Alexa 488-labeled rhEndostatin and photographed at 100× magnification under Alexa 488 (green) excitation wavelength. (D) and (E), HUVECs were incubated simultaneously in anti-tropomyosin TM311 ascites fluid and 40 micrograms per milliliter (μg/ml) Alexa 488-labeled rhEndostatin followed by incubation in Alexa 594 conjugated goat anti-mouse IgG (H+L). The same field was photographed under Alexa 488 (green) and Alexa 594 (red) excitation wavelengths at 100× magnification.
HUVECs were incubated in the presence of 40 micrograms per milliliter (μg/ml) Alexa 488-labeled rhEndostatin alone (A), or in the presence of a 50-fold molar excess of control peptide (B), or E37 peptide (C). Cells were photographed using the same exposure times at 100x magnification under Alexa 488 (green) excitation wavelength.
To detect the binding of Alexa-labeled rhEndostatin 1×10^4 HUVEC, HMVEC and HAECs were plated on 1.5% gelatin coated Nalge Nunc Lab Tek II chamber slides (Naperville, Ill.) and fixed in 10% neutral buffered formalin followed by a methanol wash. The chamber slides were incubated in PBS/1% calf serum containing 40 μg/ml (2 μM) of Alexa 488-labeled rhEndostatin (Narum et al., manuscript in preparation) for 1 hr at room temperature. The slides were washed in PBS, coverslips mounted using fluorescent mounting media (Kirkegaard and Perry Laboratories, Gaithersburg, Md.) and cells photographed under Alexa 488 excitation wavelength. Co-localization studies were performed as above except cells were incubated in PBS/1% calf serum containing 1:200 mouse anti-tropomyosin TM311 (Sigma, St. Louis, Miss.) and 40 μg/ml of Alexa 488-labeled rhEndostatin followed by incubation with goat anti-mouse IgG (H+L) conjugated to Alexa 594 (Molecular Probes, Eugene, Oregon). The same fields were photographed under Alexa 488 and Alexa 594 wavelengths. […]

[5] = target: recombinant human Endostatin protein (human); assay: cell-based or functional assay

T1 sequence (P09493 1-284 isoform P09493-3): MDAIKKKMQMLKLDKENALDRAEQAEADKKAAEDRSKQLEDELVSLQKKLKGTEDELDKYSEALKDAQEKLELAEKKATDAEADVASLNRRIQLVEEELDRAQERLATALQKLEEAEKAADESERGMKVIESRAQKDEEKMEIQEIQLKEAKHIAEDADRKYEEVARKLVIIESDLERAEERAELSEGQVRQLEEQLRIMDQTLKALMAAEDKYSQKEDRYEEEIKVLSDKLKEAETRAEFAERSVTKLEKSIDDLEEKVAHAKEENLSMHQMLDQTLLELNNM

competition for binding of rhEndostatin to immobilized rhTM3 ([1]; 5 μM rhEndostatin with 0-45 μM soluble rhTM3, 2000 RU immobilized rhTM3): competed for the binding of rhEndostatin | binding of tropomyosin to rhEndostatin [2]: binds | binding of tropomyosin to rhEndostatin ([2]; listed as tropomyosin): considerably more tropomyosin bound
Molecule: rhTM3: recombinant human tropomyosin isoform 3 (fibroblast tropomyosin), SEQ ID NO:119; also as λ21-1 bacterial lysate (EKVAHAKEENLSMHQMLDQTLLELNNM)
binding of tropomyosin to rhEndostatin ([2]; listed as hTM3): higher immunoreactivity in rhEndostatin coated wells than in wells coated with BSA; also recorded: binds

specific binding to immobilized rhTM3 ([1]; negative control, similar concentrations (0-46 μM) passed over the rhTM3 chip): no evidence of specific binding
B2: rhAngiostatin K1-3: recombinant human Angiostatin kringles 1-3 produced in P. pastoris, used as negative control (protein)
chain: VYLSECKTGNGKNYRGTMSKTKNGITCQKWSSTSPHRPRFSPATHPSEGLEENYCRNPDNDPQGPWCYTTDPEKRYDYCDILECEEECMHCSGENYDGKISKTMSGLECQAWDSQSPHAHGYIPSKFPNKNLKKNYCRNPDRELRPWCFTTDPNKRWELCDIPRCTTPPPSSGPTYQCLKGTGENYRGNVAVTVSGHTCQHWSAQTPHTHNRTPENFPCKNLDENYCRNPDGKRAPWCHTTNSQVRWEYCKIPSCDSSPV

Continued, molecule first:

Molecule: CSNSDKPKCGGGS (disulfide 1-9 (inferred)) [control peptide, reference compound]
incidence of metastatic lesions on the lungs versus 1.5 nmol rhEndostatin alone [3]: statically indistinguishable | inhibition of binding of Alexa-labeled rhEndostatin to HUVEC microfilaments [4]: not

B1: E37 peptide (synthetic, cyclized) (peptide)
chain: CTHWWHKRCGGGS
modifications: disulfide 1-9
decrease in the anti-tumor activity of rhEndostatin (B16-BL6 lung metastases), 1.5 nmol rhEndostatin co-injected with 15 nmol E37 peptide [5]: 11 percent | decrease in the anti-tumor activity of rhEndostatin (B16-BL6 lung metastases), 1.5 nmol rhEndostatin co-injected with 75 nmol E37 peptide [5]: 30.5 percent | decrease in the anti-tumor activity of rhEndostatin (B16-BL6 lung metastases), 1.5 nmol rhEndostatin co-injected with 375 nmol E37 peptide [5]: 84.5 percent | inhibition of lung metastasis, 1.5 nmol rhEndostatin co-administered with a 250-fold molar excess of E37 peptide [5]: 11% | inhibition of the formation of lung metastasis (B16BL6), 30 µg Endostatin protein plus 10 fold molar excess of E37 peptide [5]: 76% | inhibition of the formation of lung metastasis (B16BL6), 30 µg Endostatin protein plus 50 fold molar excess of E37 peptide [5]: 61% | inhibition of the formation of lung metastasis (B16BL6), 30 µg Endostatin protein plus 250 fold molar excess of E37 peptide [5]: 21%
